Data from the nanobody polyreactivity screen of Harvey et al. (2022).

Test: yeast display, Sf9 membrane polyspecificity reagent, FACS + sequencing; frameworks hold sequencing errors
Procedure, shortened: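 Synthetic nanobody libraries on Saccharomyces cerevisiae BJ5465 were galactose-induced for 36–48 hours, stained 1 hour at 4 °C with 10% biotinylated, detergent-solubilized Sf9 membrane reagent and enriched on streptavidin microbeads. FACS then separated cells into low and high (top ~1%) gates by anti-HA (expression) and streptavidin (reagent binding) fluorescence. Genes were colony-PCR amplified, MiSeq 2 × 250 sequenced and CDR-length filtered. A clone's polyreactivity label is that of its gate of origin.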

Sequence | polyreactivity (PSR sort gate)
QVQLEESGGGLVQAGGSLRLSCAASGLIFIQYAMVWNRQAPGKERELVAAISGSGVTTYYADSVNGSFTISRDKAMNTVYLQMTSLKPEDTAVYYCNAALRWKYDWGQGTQVTVSS | low polyreactivity
QVQLVESGGGLVQAGGSLRLSCAASGRIFYPYAMGWYRQAPGKERDLVAAIRRSGVDTYYADSVKGRFTISRDNAKNTVYLQMNSLKPEDTAVYYCNKDGGGDSYWYDYWGQGTQVTVSS | low polyreactivity
QVQLVESGGGLVQAGGSLRLSCAASGSTFRYNAMGWYRQAPGKERELVASISGSGGGTYYADSVKGRFTISRDNAKNTVYLQMNSLKPEDTAVYYCAADAGAFYFGGDYWGQGTQVTVSS | low polyreactivity
QVQLEESGGGLVQAGGSLRLSCAASGSTIRYNAMGWSRQAPGKERELVAGISVRGGSTYYADSVKGRFTISRDNAKNTVYLQMNSLKPEDTAVYYCATRSPYSYPNLYYWGQGTQVTVSS | high polyreactivity
QVQLVESGGGLVQAGGSLRLSCAASGRTFDAYTMGWYRQAPGKEMELVAAITFSGGNTYYADSVKGRFIISRDNAKNTVYLQMNSLKPEDTAVYYCAARHWIYSTDYSTYYEYDSWGQGTQVTVSS | low polyreactivity
QVQLVESGGGLVQAGGSLRLSCAASGRIFSAYAMGWYRQAPGKERELVAAITSVGSTKYADSVKGLFTISRDNAKNTVYLQMNSLKPEDTAVYYCAAEYTRSFYIYYRFGYWGQGTQVTVSS | high polyreactivity
QVQLVESGGGLVQAGGSLRLSCAASGRSIRIYAMGWYRQAPGKERELVAAIRWSGGTTYYADSVKGRFTISRDNAKNTVYLQMNSLKPEDTAVYYCAADSTNRYDYWGQGTQVTVSS | high polyreactivity
QVQLVESGVGLVQAGGSLRLSCAASGRIVWGYAMGWYRQAPGKERELVATITRGGSTNYADSVKGRFTISRDNAKHTVYLQMNSLKPEDTAVYYCARDWGKSEYDYWGQGTQVTVSS | high polyreactivity
QVQLVESGGGLVQAGGSLRLSCAASGNIFSYNAMGWYRQAPGKERELVAAITTSSGRTYYADSVKGRFTISRDNAKNTVYLQMNSLKPEDTAVYYCNRTVSRRSYRWDYDYWGQGTQVTVSS | high polyreactivity
QVQLVESGGGLVQAGGSLRLSCAASGFIFFTNAMGWYRQAPGKERELVAAITDDGSTYYADSVKGRFTISRDNAKNTVYLQMNSLKPEDTAVYYCNVVLQDPSYSWFWYDYDYWGQGTQVTVSS | high polyreactivity
QVQLVESGGGLVQARGSLRLSCAASGRIFFRNAKGWYRQAPGKERELVAAITYSGGSTYYADSVKGRFTISRDNAKNTVYLQMNSLKPEDTAVYYCGAGYWFSYSRVTRYDYWGQGTQVTVSS | high polyreactivity
